Columns and labels:
[1] = tested on: HIV-1 Ba-L virus (gp120) (Human immunodeficiency virus 1 (Ba-L)); assay: cell_activity; conditions: 2'-F pyrimidines (U, C)
[2] = tested on: gp120 envelope glycoprotein, HIV-1 Ba-L (SU) (Human immunodeficiency virus 1 (Ba-L)); assay: competition; conditions: 2'-F pyrimidines (U, C); at highest aptamer concentration, no CD4; 48d inhibited at nM with CD4; CG10 and sCD4 binding not inhibited
[3] = tested on: HIV-1 Ba-L break-through clones after B4 selection (gp120) (Human immunodeficiency virus 1 (Ba-L)); assay: cell_activity; conditions: 2'-F pyrimidines (U, C); 100 nM aptamer; all four break-through clones neutralised

Row | Sequence | activity (log10 IU/ml reduction) ([1]; 100 nM aptamer, PBMC TCID50) | binding signal (% inhibition of mAb 17b binding) [2] | IC50 ([1]; neutralisation in human PBMC, about 5 log10 at 100 nM) [nM] | activity (log10 IU/ml reduction) [3]
1 | AUGACGUACCCGCACAAGCCACCACAAGUCUUAAUCGCGCCACCCUUGC [B84] | > 4 | – | – | –
2 | GAGCGGUUAAGGGAGAUUUAGGCAGCAGCUUGGACAGUGUAUCGGCUGAG [B4] | – | 50 | < 1 | > 4

From US20070066547
